Results published in patent US20090041754A1 (Astellas, published 2009).

Target: T1, human ATP5B protein with C-terminal V5 epitope, made in vitro from pcDNA-ATP5B (human, UniProt P06576 1-529, radioisotope-labelled (L-[35S] Pro-mix))
T1 construct: In vitro transcription and translation (TNT system); about 60 kDa; also called wild type ATP5B
Assay: GST pull-down of 35S-labelled in vitro translated human ATP5B with GST-DHFR on beads, autoradiography; condition without MTX-phenformin
Experimental: A 15 μl portion of this human ATP5B protein preparation liquid and 1 μg for each of the GST protein or GST-DHFR, purified on the glutathione Sepharose beads, were mixed and shaken at 4° C. for 1 hour after adding 0.3 ml of buffer A thereto. Thereafter, the protein binding to the GST protein or GST-DHFR on beads was co-precipitated by centrifugation.

T1 sequence (P06576 whole entry): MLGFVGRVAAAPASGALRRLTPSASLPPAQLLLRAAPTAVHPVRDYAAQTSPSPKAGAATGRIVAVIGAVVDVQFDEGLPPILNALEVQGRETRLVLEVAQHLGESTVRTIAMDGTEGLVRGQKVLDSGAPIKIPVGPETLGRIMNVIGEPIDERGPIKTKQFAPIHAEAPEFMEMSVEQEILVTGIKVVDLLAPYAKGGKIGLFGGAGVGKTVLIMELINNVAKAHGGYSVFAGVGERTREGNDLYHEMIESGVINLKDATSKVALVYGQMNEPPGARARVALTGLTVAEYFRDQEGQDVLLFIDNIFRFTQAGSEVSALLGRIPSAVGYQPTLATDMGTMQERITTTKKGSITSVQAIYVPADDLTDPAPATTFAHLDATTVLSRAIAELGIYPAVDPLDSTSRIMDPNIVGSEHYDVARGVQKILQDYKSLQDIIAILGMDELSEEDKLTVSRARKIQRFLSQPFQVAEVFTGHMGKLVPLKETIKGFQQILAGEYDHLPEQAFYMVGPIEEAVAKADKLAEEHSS

binding result: no binding
B1: GST fusion DHFR protein (other, human, UniProt P00374 1-187, looked up)
chain: MVGSLNCIVAVSQNMGIGKNGDLPWPPLRNEFRYFQRMTTTSSVEGKQNLVIMGKKTWFSIPEKNRPLKGRINLVLSRELKEPPQGAHFLSRSLDDALKLTEQPELANKVDMVWIVGGSSVYKEAMNHPGHLKLFVTRIMQDFESDTFFPEIDLEKYKLLPEYPGVLSDVQEEKGIKYKFEVYEKND
notes: domain: complete length; Expressed in E. coli BL21 and purified on glutathione Sepharose beads (45 kDa); also called GST-DHFR; not shown: GST tag of vector pGEX-6P-1 (Amersham)
